Reference: patent publication US11479601B2, “Antibodies specific to Sonic Hedgehog and method of use thereof” (The Regents of the University of California, priority 2016, dated 2022)
Values joined by “and” are separate entries in the source; they are usually repeats but may differ in a detail not shown here. Identical values can stand only once.

Tests used:
[1] = biological target: T1, full-length Shh polypeptide (Homo sapiens, UniProt Q15465); experiment: Flow cytometry: binding of C-terminal Shh antibodies to full-length Shh expressed in transfected cells; conditions: antibody at 1:10 (Commercial at 1:50)
T1 construct: Expression of full-length Shh polypeptide in transfected cells; expressed in transfected cells; pCMV-Shh plasmid (Origene)
Experimental: FACS (1:40). The secondary antibody was a donkey anti-mouse FITC-linked antibody (ab97029, 1:100, Abcam). For cell analysis after treatment assays (chemotherapy or GDC0449), a dead cell marker (SytoxRed, Invitrogen) was also used. For human fresh samples, an anti-CD45 APC-linked antibody (ab28106, 1:100, Abcam), and a dead cells marker (SytoxRed, Invitrogen) were added. For staining of stable transfected cell lines, mouse anti-HA antibody (Abcam, 1:100) and rabbit anti-FLAG antibody (Cell Signaling; 1:400) were used. Corresponding secondary antibodies were donkey anti-mouse AlexaFluor647 (Invitrogen, 1:1000) and donkey anti-rabbit AlexFluor594 (Invitrogen, 1:1000) antibodies. Flow cytometry analyses were performed on AccuriC6 flow cytometer (BD Biosciences), and FACS on FACSAria II (BD Biosciences). Flow analyses were based at least on 200,000 cells, and each test was made at least in triplicate. For all experiments, a negative control with cells processed without primary antibody was used. […]
Expression of full-length Shh polypeptide in transfected cells increased the percentage of cells labeled with the Shh antibodies produced by two of the subclones (2D9 and 2G4) identified after the screening, compared to the percentage of untransfected cells labeled by the same antibodies, as measured by flow cytometry (Table 3).

[2] = tested on: A549 cell subcutaneous xenograft tumor; experiment: A549 subcutaneous xenograft, intra-tumor injection of C-terminal Shh antibody; type: in vivo, mice
Experimental: For xenograft formation, female nude mice, 5 to 10 weeks old, were injected subcutaneously (SC) with 10 million A549 cells in the dorsal area in a volume of […]. For SC inoculation of sorted cells, 1,500 cells of A549 Shh+ or Shh− cells were injected in a volume of […]. For intra-veinous injection of sorted cells, 1,000 cells of A549 Shh+ or Shh− cells were injected in the tail vein. For the in vivo treatment assay, after xenograft formation, animals were injected intravenously with cisplatin (10 mg/kg weekly), docetaxel (10 mg/kg twice a week) or vehicle, and intraperitoneally with GDC0449 (20 mg/kg daily) or vehicle. Each group consisted in 4-5 mice. Tumor size was determined twice a week, and tumor volumes were calculated using width (x) and length (y) (x^2y/2, where x<y). Tumors were collected after mice euthanasia, and cell dissociation was performed as for fresh human samples (cf supra). Flow cytometry and FACS were done as described supra. All animals were cared in accord with University of California San Francisco (UCSF) guidelines.
The in vivo effect of the C-terminal Shh antibodies were tested using the A549 cell subcutaneous xenograft tumor model in mice, as described in Example 1. After xenograft formation, animals were intra-tumor injected with a C terminal Shh antibody (2G4 or 2D9; each at 158 μg), or a control solution, 3 times a week for about 3 weeks (at 2-3 day intervals). Tumor volume was determined, as described in Example 1, every 2 days. Weight and size of the excised tumor were determined after the antibody treatment. A portion of the excised tumor was sectioned for immunohistochemical analysis of Shh protein expression, and RNA was extracted from another portion of the excised tumor for analysis of Gli1 expression.

[3] = biological target: T2, cell-surface Sonic Hedgehog on A549 cells (Homo sapiens, UniProt Q15465); experiment: FACS of non-permeabilized A549 cells labeled with anti-Shh antibodies; type: binding; conditions: A549, without membrane permeabilization
T2 construct: recognize cell-surface expression of Sonic Hedgehog, A549 cells were labeled with in-house antibodies; endogenous in cells; host or cells: A549
Experimental: A549, 293T or 293T (+pCMV Shh) cells were labeled with Sonic Hedgehog (Shh) antibody (Abcam 53281, 1:100) or therapeutic test antibodies (1:100) for 1 hour at RT post serum blocking. Following two PBS washes, a FITC-conjugated secondary antibody (Abcam 97029, 1:100) or an Alexa-Fluor 647 (Invitrogen, 1:1000) was used to label cells. Samples were screened by flow cytometry using an Accuri™ C6 machine (BD Biosciences). For fluorescence activated cell sorting, samples were sorted using an S3e™ Cell Sorter (Bio-Rad) and the Shh+ population was collected. For all experiments, cells processed without primary antibody served as a negative control. Experiments were performed in duplicates or triplicates.
To corroborate that the two anti-Shh antibodies, 1C11-2G4 and 1C11-2D9, recognize cell-surface expression of Sonic Hedgehog, A549 cells were labeled with in-house antibodies and sorted via Fluorescence Activated Cell Sorting (FACS) without membrane permeabilization. […] BMC Cancer. 15:84 (2015); Singh S, Trevino J, Bora-Singhal N, Coppola D, Haura E, Altiok S, Chellappan S P. EGFR/Src/Akt signaling modulates Sox2 expression and self-renewal of stem-like side-population cells in non-small cell lung cancer. Mol Cancer. 11:73 (2012); Cochrane C R, Szczepny A, Watkins D N, Cain J E. Hedgehog Signaling in the Maintenance of Cancer Stem Cells. Cancers (Basel). […]

percentage of cells labeled with the Shh antibody (flow cytometry) ([1]; +SHh Full-Length transfection): 2.24%
percentage of cells labeled with the Shh antibody (flow cytometry) ([1]; No transfection): 0.17%
Shh+ cells recognized from a mixed population (FACS) [3]: 0.11%
B1: 2G4: purified mouse monoclonal C-terminal Shh antibody from hybridoma sub-clone 2G4 of clone 1C11, IgG1 kappa (antibody, V domains shown)
VH: EVKLVESGGGLVKPGGSLKLSCAASGFTFSSYTMSWVRQTPAKRLEWVATISSGGGNTYYPDSVKGRFTISRDNARNTLYLQMSSLRSEDTAMYYCARDYRSLFAYWGQGTLVTVSA
VL: QIVLTQSPAIMSASPGEKVTITCSASSSVSYMHWFQQKPGTSPKLWIYSTSNLASGVPARFSGSGSGTSYSLTISRMEAEDAATYYCQQRSSYPFTFGSGTKLEIK
Average % change in tumor volume, relative to day −2 ([2]; Day 0): 104.50%
Average change in tumor volume ([2]; Day 0, 158 μg intra-tumor 3 times a week): 14.6 mm^3
Average % change in tumor volume, relative to day −2 ([2]; Day 2): 90.20%
Average change in tumor volume ([2]; Day 2): −21.7 mm^3
Average % change in tumor volume, relative to day −2 ([2]; Day 5): 103.10%
Average change in tumor volume ([2]; Day 5): 15.3 mm^3
Average % change in tumor volume, relative to day −2 ([2]; Day 7): 105.80%
Average change in tumor volume ([2]; Day 7): 33.5 mm^3
Average % change in tumor volume, relative to day −2 ([2]; Day 12): 121.90%
Average change in tumor volume ([2]; Day 12): 103 mm^3
Average % change in tumor volume, relative to day −2 ([2]; Day 14): 137.70%
Average change in tumor volume ([2]; Day 14): 138.2 mm^3
Average % change in tumor volume, relative to day −2 ([2]; Day 16): 148%
Average change in tumor volume ([2]; Day 16): 174.04 mm^3
Average % change in tumor volume, relative to day −2 ([2]; Day 19): 189.60%
Average change in tumor volume ([2]; Day 19): 277.7 mm^3
Average % change in tumor volume, relative to day −2 ([2]; Day 21): 202.40%
Average change in tumor volume ([2]; Day 21): 337.8 mm^3
Average % change in tumor volume, relative to day −2 ([2]; Day −2): 100%
Weight of tumor after treatment, AVG ([2]; average of 3 animals): 0.0644
Weight of tumor after treatment ([2]; individual animals): 0.048 and 0.0966 and 0.0486
